Columns and labels:
[1] = Solubility of the dried iron (III) casein N-acetyl-L-aspartylated complex; assay type: physicochemical
Description: (§1) The moist pure product obtained in the previous stage is dried under vacuum, at a temperature increasing from 60° C. to 70° C., for an overall period of 24 hours. After the desiccation process, 6.5 g of pure iron (III) casein N-acetyl-L-aspartylated complex are obtained, with a water content <5 wt % (Karl Fisher), having the following chemical and physicochemical characteristics:
as §1, with “6.6” for “6.5”, “casein:” for “casein”, “content<5” for “content <5”
as §1, with “6.4” for “6.5”, “content<5” for “content <5”, “characteristics: […]” for “characteristics:”

[2] = tested on: patients with iron deficiency anaemia; details: cited from earlier work
rats = details: complex containing 5% iron; cited from earlier work
dogs = details: complex containing 5% iron; cited from earlier work

iron (III) casein N-acetyl-L-aspartylated complex [Example 3]
Solubility [1]: Soluble in NaOH pH = 8

iron (III) casein: N-acetyl-L-aspartylated complex [Example 2]
Solubility [1]: Soluble in NaOH pH = 8

iron-acetyl-aspartylated casein [Fe-ASP]
Changes in clinical and haematological profiles ([2]; controlled clinical trials, compared with iron protein succinylate (IPS)): virtually identical to those seen with iron protein succinylate (IPS)
Safety ([2]; human, in vivo): No safety considerations were raised
Clinical and haematological parameters after treatment ([2]; open clinical trials, all categories of patients with iron deficiency anaemia): highly significant improvements

iron-protein succinylate [iron succinyl casein complex]
Gastrointestinal tolerability (rats): better gastrointestinal tolerability
Gastrointestinal tolerability (dogs): better gastrointestinal tolerability

ferro-N-acetyl-L-aspartylated casein
Solubility at alkaline pH values [1]: completely soluble at alkaline pH values

Reference: patent publication US20170340747A1, “PROCESS FOR PRODUCING IRON (III) CASEIN N-ACETYL-ASPARTYLATED COMPLEXES AND USE THEREOF IN PHARMACEUTICAL COMPOSITIONS” (priority 2014, published 2017)
